This note sets out measurements from the RNAGym collection of RNA variant scans (doi:10.7554/elife.80360).

B1: HDV Ribozyme (parent)
chain: GGCCGGCAUGGUCCCAGCCUCCUCGCUGGCGCCGGCUGGGCAACAUUCCGAGGGGACCGUCCCCUCGGUAAUGGCGAAUGGGACCCA

In the series the parent is B1. Put plainly: self-cleavage, relative activity (ratio to wild type); higher = more cleavage; co-transcriptional.
On to GGCCGGCAUGGUCCCAGCCUCCUCGGUGGCGCCGGCUGGGCAACAUUCCGAGGGGACCGUCCCCUCGGUAAUGGCGAAUGCGACCCA [C26G G81C], for which the self-cleavage is 0.499. To GGCCGGCAUGGUCCCAGCCUCCUCGGUGGCGCCGGCUGGGCAACAUUCCGAGGGGACCGUCCCCUCGGUAAUGGCGAAAGGGACCCA [C26G U79A] belongs 0.692; to GGCCGGCAUGGUCCCAGCCUCCUCGGUGGCGCCGGCUGGGCAACAUUCCGAGGGGACCGUCCCCUCGGUAAUGGCGAAGGGGACCCA [C26G U79G], 0.8.

For GGCCGGCAUGGUCCCAGCCUCCUCGGUGGCGCCGGCUGGGCAACAUUCCGAGGGGACCGUCCCCUCGGUAAUGGCGAACGGGACCCA [C26G U79C], the self-cleavage was determined as 0.458. GGCCGGCAUGGUCCCAGCCUCCUCGGUGGCGCCGGCUGGGCAACAUUCCGAGGGGACCGUCCCCUCGGUAAUGGCGAAUAGGACCCA [C26G G80A]: the self-cleavage is 0.789. The result for GGCCGGCAUGGUCCCAGCCUCCUCGGUGGCGCCGGCUGGGCAACAUUCCGAGGGGACCGUCCCCUCGGUAAUGGCGAAUUGGACCCA [C26G G80U] reads 0.261; that for GGCCGGCAUGGUCCCAGCCUCCUCGGUGGCGCCGGCUGGGCAACAUUCCGAGGGGACCGUCCCCUCGUUAAUGGCGAAUGGGACCCA [C26G G68U], 0.686. To GGCCGGCAUGGUCCCAGCCUCCUCGGUGGCGCCGGCUGGGCAACAUUCCGAGGGGACCGUCCCCUCGCUAAUGGCGAAUGGGACCCA [C26G G68C] belongs 1.07; to GGCCGGCAUGGUCCCAGCCUCCUCGGUGGCGCCGACUGGGCAACAUUCCGAGGGGACCGUCCCCUCGGUAAUGGCGAAUGGGACCCA [C26G G35A], 0.326; to GGCCGGCAUGGUCCCAGCCUCCUCGGUGGCGCCGUCUGGGCAACAUUCCGAGGGGACCGUCCCCUCGGUAAUGGCGAAUGGGACCCA [C26G G35U], 0.499. The result for GGCCGGCAUGGUCCCAGCCUCCUCGGCGGCGCCGGCUGGGCAACAUUCCGAGGGGACCGUCCCCUCGGUAAUGGCGAAUGGGACCCA [C26G U27C] reads 0.795; that for GGCCGGCAUGGUCCCAGCCUCCUCGGGGGCGCCGGCUGGGCAACAUUCCGAGGGGACCGUCCCCUCGGUAAUGGCGAAUGGGACCCA [C26G U27G], 0.208. Regarding GGCCGGCAUGGUCCCAGCCUCCUCGGAGGCGCCGGCUGGGCAACAUUCCGAGGGGACCGUCCCCUCGGUAAUGGCGAAUGGGACCCA [C26G U27A], the self-cleavage is 0.516. Take GGCCGGCAUGGUCCCAGCCUCCUCGGUGGCGCCGGCUGGGCAACAUUCCGAGAGGACCGUCCCCUCGGUAAUGGCGAAUGGGACCCA [C26G G53A]: the self-cleavage was determined as 1.02.

Take GGCCGGCAUGGUCCCAGCCUCCUCGGUGGCGCCGGCUGGGCAACAUUCCGAGGGGACCGUCCCCUCGGUAAUGGCGAAUGGGACCGA [C26G C86G]: the self-cleavage came out at 0.886. The result for GGCCGGCAUGGUCCCAGCCUCCUCGGUGGCGCCGGCUGGGCAACAUUCCGAGGGGACCGUCCCCUCGGUAAUGGCGAAUGGGACCUA [C26G C86U] reads 0.831; that for GGCCGGCAUGGUCCCAGCCUCCUCGGUGGCGCCGGCUGGGCAACAUUCCCAGGGGACCGUCCCCUCGGUAAUGGCGAAUGGGACCCA [C26G G50C], 0.997. Regarding GGCCGGCAUGGUCCCAGCCUCCUCGGUGGCGCCGGCUGGGCAACAUUCCUAGGGGACCGUCCCCUCGGUAAUGGCGAAUGGGACCCA [C26G G50U], the self-cleavage worked out at 1.05. To GGCCGGCAUGGUCCCAGCCUCCUCGGUGGCGCCGGCUGGGCAACAUUCCGAGGGGACCGUCCCCUCGGUAAUGGCGAAUGGCACCCA [C26G G82C] belongs 0.499; to GGCCGGCAUGGUCCCAGCCUCCUCGGUGGCGCCGGCUGGGCAACAUACCGAGGGGACCGUCCCCUCGGUAAUGGCGAAUGGGACCCA [C26G U47A], 0.87; to GGCCGGCAUGGUCCCAGCCUCCUCGGUGGCGCCGGCUGGGCAACAUCCCGAGGGGACCGUCCCCUCGGUAAUGGCGAAUGGGACCCA [C26G U47C], 0.95. Take GGCCGGCAUGGUCCCAGCCUCCUCGGUGGCGCCGGCUGGGCAACAUGCCGAGGGGACCGUCCCCUCGGUAAUGGCGAAUGGGACCCA [C26G U47G]: the self-cleavage was 1.08. The result for GGCCGGCAUGGUCCCAGCCUCCUCGGUCGCGCCGGCUGGGCAACAUUCCGAGGGGACCGUCCCCUCGGUAAUGGCGAAUGGGACCCA [C26G G28C] reads 0.0504; that for GGCCGGCAUGGUCCCAGCCUCCUCGGUUGCGCCGGCUGGGCAACAUUCCGAGGGGACCGUCCCCUCGGUAAUGGCGAAUGGGACCCA [C26G G28U], 0.0396; that for GGCCGGCAUGGUCCCAGCCUCCUCGUUGGCGCCGGCUGGGCAACAUUCCGAGGGGACCGUCCCCUCGGUACUGGCGAAUGGGACCCA [C26U A71C], 0.748. To GGCCGGCAUGGUCCCAGCCUCCUCGUUGGCGCCGGCUGGGCAACAUUCCGAGGGGACCGUCCCCUCGGUAGUGGCGAAUGGGACCCA [C26U A71G] belongs 0.928. For the variant GGCCGGCAUGGUCCCAGCCUCCUCGUUGGCGCCGGCUGGGCAACAUUCCGAGGGGACCGUCCCCUCGGUCAUGGCGAAUGGGACCCA [C26U A70C], the self-cleavage is 1.08. As for GGCCGGCAUGGUCCCAGCCUCCUCGGUGGCGCCGGCUGGGCAACAUUCCGAGGGGACCGUCCCCUCGGUAAUAGCGAAUGGGACCCA [C26G G73A], the self-cleavage was 0.57. The result for GGCCGGCAUGGUCCCAGCCUCCUCGGUGGCGCCGGCUGGGCAACAUUCCGAGGGGACCGUCCCCUCGGUAAUCGCGAAUGGGACCCA [C26G G73C] reads 0.492; that for GGCCGGCAUGGUCCCAGCCUCCUCGGUGUCGCCGGCUGGGCAACAUUCCGAGGGGACCGUCCCCUCGGUAAUGGCGAAUGGGACCCA [C26G G29U], 0.119; that for GGCCGGCAUGGUCCCAGCCUCCUCGGUGACGCCGGCUGGGCAACAUUCCGAGGGGACCGUCCCCUCGGUAAUGGCGAAUGGGACCCA [C26G G29A], 0.208. As for GGCCGGCAUGGUCCCAGCCUCCUCGGUGGCGCCGGCUGGGCAACAUUCCGAAGGGACCGUCCCCUCGGUAAUGGCGAAUGGGACCCA [C26G G52A], the self-cleavage stood at 0.867.
